In patent publication US7037502B2, “Peptide with the amino acid sequence of KVLDGQDP having anti-inflammatory properties” (priority 2001, dated 2006):

Biological target: T1, TGase (Guinea pig liver, EC 2.3.2.13) (UniProt P08587)
T1 construct: 0.001 U TGase (Guinea pig liver, EC 2.3.2.13, Sigma); purchased Sigma; host or cells: guinea pig liver
T1 sequence (P08587 1-690): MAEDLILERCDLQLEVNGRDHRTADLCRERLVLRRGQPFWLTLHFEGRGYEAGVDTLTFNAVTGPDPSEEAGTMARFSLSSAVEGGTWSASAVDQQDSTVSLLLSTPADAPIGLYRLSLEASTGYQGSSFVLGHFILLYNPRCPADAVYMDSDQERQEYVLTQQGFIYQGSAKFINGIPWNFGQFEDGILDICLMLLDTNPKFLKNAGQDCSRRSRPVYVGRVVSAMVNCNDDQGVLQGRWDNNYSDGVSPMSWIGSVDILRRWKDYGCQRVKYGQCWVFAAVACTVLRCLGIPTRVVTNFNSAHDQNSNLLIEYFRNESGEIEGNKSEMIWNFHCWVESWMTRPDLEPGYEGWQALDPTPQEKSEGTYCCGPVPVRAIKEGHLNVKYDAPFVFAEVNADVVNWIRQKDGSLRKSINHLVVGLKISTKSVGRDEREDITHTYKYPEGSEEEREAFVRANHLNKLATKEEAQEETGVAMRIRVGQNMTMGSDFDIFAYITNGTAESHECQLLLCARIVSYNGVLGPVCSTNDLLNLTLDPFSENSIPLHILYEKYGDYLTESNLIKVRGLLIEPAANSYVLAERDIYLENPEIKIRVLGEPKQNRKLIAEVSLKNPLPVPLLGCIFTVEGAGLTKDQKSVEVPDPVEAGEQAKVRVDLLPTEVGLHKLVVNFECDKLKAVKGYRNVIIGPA
Experiment: Inhibitory effect of synthetic peptides on TGase in vitro ([14C]-putrescine incorporation into succinylated casein)
Format: biochemical
Conditions: peptides 1×10^−8 M, preincubated 15 min at 37° C.; compared with the peptides known as PLA2 inhibitors
Description: It is needed to inhibit the activity of TGase in order to secure maximum anti-inflammatory activity since the TGase activates PLA2. A established TGase assay method was used to determine the enzymatic activity by measuring the incorporation of [1,4]^14C-putrescine into succinylated casein (Folk J E., et al., Transglutaminase. Methods in Enzymol 1985; 113; 358–375).
To determine the inhibitory activity, 0.001 U TGase (Guinea pig liver, EC 2.3.2.13, Sigma; 1.0 unit will catalyze the formation of […] of hydroxamate per min. from N- -CBZ-Gln-Gly and hydroxylamine at pH 6.0 at 37° C.) was preincubated for 15 minutes with the synthetic peptides in 0.1 ml (1×10^−8 M) at 37° C. before adding the TGase/peptide mixture to the substrate solution (0.5 ml) containing 0.1 M Tris-acetate pH 7.5, 1% succinylated casein, 1 mM EDTA, 10 mM CaCl2, 0.5% lubrol PX, 5 mM DTT, 0.15M NaCl and 0.5 mCi ^14C-putrescine [Dupont-New England Nuclear, Wilmington, […] (118 Ci/mole)]. […] The TCA-insoluble precipitates were collected onto GF/A glass fiber filters, washed with cold 5% TCA, dried and counted. […]
For inhibitory test of the peptides given, each value is the mean of data from three separate experiments (S.D.<10%). The value of TGase activity incubated without peptides was determined as 100% TGase activity that is 4.89 pmole putrescine/hr. % Inhibition was shown in FIG. 2.

Row | Sequence | TGase activity (FIG. 2), result in words
1 | KVLDGQDP [Peptide R2, synthetic peptide of the invention] | significantly reduced
2 | KVLDPVKG [Peptide R1, synthetic peptide of the invention] | significantly reduced
